Source: patent publication US9587002B2, “Sequence of nucleotides and peptides GSE 24.2 of dyskerin, which can induce telomerase activity, method for obtaining same, therapeutic compositions and applications thereof” (CONSEJO SUPERIOR DE INVESTIGACIONES CIENTIFICAS, priority 2005, dated 2017)
Entries after “also recorded” stand apart in the source; their conditions may differ.

Tested on: hTERT promoter
Experiment: hTERT-luc reporter (luciferase) assay in 293T cells
Format: cell-based, human
Protocol: FIG. 8.—Activity of the hTERT promoter in the 293T cell lines: pLNCX and 24.2 and in 293T cells transiently transfected with the pLNCX-24.2 construct and the pLNCX empty plasmid. A) Both the pLNCX and the 24.2 cells were transiently transfected with 0.25 μg of the hTERT-luc reporter vector. The cells were seeded in 60-mm plates. After 24 hours of transfection, the cells were lysed and the luciferase activity of 10 μg of total protein was quantified. As a transfection control, the cells were co-transfected with a reporter vector, CMV-Renilla. B) The 293T cells were transfected with the pLNCX vector and the 24.2 plasmid (5 μg), and both were co-transfected with 0.25 μg of the hTERT-luc reporter vector. After seeding the cells as in A, they were transfected with pLNCX and 24.2, and co-transfected with the hTERT-luc reporter vector; subsequently, they were treated as in A. As a transfection control, the CMV-Renilla reporter vector was used. The data correspond to the ratio of relative units of luciferase with respect to non-transfected cells. Each point represents the mean±the standard deviation obtained from 3 independent experiments. C) The 293T cells were transfected with the different GSE 24.4, DSK, TRUB I, TRUB II constructs and the pLNCX empty plasmid (5 μg), and co-transfected with 0.25 μg of the hTERT-luc reporter vector. The cells were seeded in 60-mm plates; after 24 hours of transfection, the cells were lysed and the luciferase activity of 10 μg of total protein was quantified. As a transfection control, the cells were co-transfected with a CMV-Renilla reporter vector. The data correspond to the ratio of relative units of luciferase with respect to non-transfected cells. Each point represents the mean±the standard deviation obtained from 3 independent experiments.
FIG. 9.—Activity of the hTERT promoter following treatment with cisplatin. A) Both the pLNCX cell line and the 24.2 cell line were transiently transfected with 0.25 μg of the hTERTIuc reporter vector. After 24 hours of transfection, they were treated with 3 μg/ml of cisplatin for 8 hours. The cells were seeded in 60-mm plates; after 24 hours of transfection and following treatment with cDDP, the cells were lysed and the luciferase activity of 10 μg of total protein was quantified. As a transfection control, the cells were co-transfected with a CMV-Renilla reporter vector. B) 293T cells which, after being transiently transfected with pLNCX and 24.2, were co-transfected with 0.25 μg of the hTERT-luc reporter vector and treated as in A. After seeding the cells as in A, they were transfected with pLNCX and 24.2, and co-transfected with the hTERT-luc reporter vector; subsequently, they were treated as in A. As a transfection control, the CMV-Renilla reporter vector was used. The data correspond to the ratio of relative units of luciferase with respect to non-transfected cells. Each point represents the mean±the standard deviation obtained from 3 independent experiments.
A) The 293T cells were co-transfected with different constructs (10 μg/DNA per million cells) and the hTERT-luc reporter (1 μg per million cells). The specified cell lines were co-transfected with the hTERT-luc reporter and different quantities of the Mad/myc expression vector. (B) The specified cell lines were co-transfected with the HIV-luc reporter and with different quantities of the Mad/myc expression vector. After 24 h of transfection, the cells were stimulated with 50 ng/ml of TNF-α for 6 hours and the luciferase activity was analysed as described above. CMV-Renilla (0.1 μg/ml per million cells) was used as a control for the transfection efficiency. The data represent the mean of two experiments performed in quadruplicate.
The pseudouridine synthase TRUB domain of dyskerin comprises two structural subdomains: the Trub I and II motifs (Zucchini et al., 2003). These two domains are critical to maintain the global protein structure of dyskerin. […]

B1: GSE 24.2: 165-pb cDNA fragment (nucleotides 268 to 433) of human dyskerin, SEQ ID NO1, encoding peptide SEQ ID NO2, expressed from pLNCX plasmid (nucleic acid, listed as Homo sapiens)
DNA: GGTTTCATTAATCTTGACAAGCCCTCTAACCCCTCTTCCCATGAGGTGGTAGCCTGGATTCGACGGATACTTCGGGTGGAGAAGACAGGGCACAGTGGTACTCTGGATCCCAAGGTGACTGGTTGTTTAATCGTGTGCATAGAACGAGCCACTCGCTTGGTGAAG
modifications: expressed from pLNCX plasmid; CDS (1)..(165) Sequence GSE 24.2
For B1, the “activity of the hTERT promoter, transient expression” value (293T cells transiently transfected with construct vs empty vector, hTERT-luc, 24 hours) was “increases the activity of the hTERT promoter”, the “hTERT promoter activity following cisplatin, transient expression” value (293T transiently expressing GSE 24.2 vs pLNCX, 3 μg/ml cisplatin 8 hours) was “greater than the baseline activity” and the “activity of the hTERT promoter, stable expression” value (pLNCX 24.2 cell line vs pLNCX, hTERT-luc, 24 hours) was “the activity of the hTERT promoter is greater; also recorded: increased the baseline activity of the telomerase promoter”. The “induction of hTERT promoter activity following cisplatin, relative to pLNCX cells” value (stable pLNCX 24.2 cells, 3 μg/ml cisplatin for 8 hours) was 4 times.
